{"source": "paper doi:10.1101/2021.10.25.465661", "about": "(bioRxiv, 2021)", "biological_target": "the molecule itself", "assay": "SEC-MALS", "data": [{"protein": "Qin eTud3 (Qin 959-1195) (domain or fragment, Drosophila melanogaster, UniProt Q9VE55 959-1195, looked up) VRPVELSPYRMPDNTERNKRTTVNILYVRKPDEFYVTLPHFQKAINNLQKSVQKAAAAMYQNMLPRTDWQVGDMCYARVQANCDSQALWYRGVVTGVIPPGITCPIVRYQVHLRDLGELIDDVHSSSLANIDEADMRISSSAKRCHLHGIRPIGDEWSKDAIDFFMDQLKAYNEIHVTGRGRTENSLSVILWGSLSILTGPFSPATIKYVNINKALLMAGMAEKDHNSDSEDDQQSM", "values": [{"measurement": "stoichiometry N", "value": 2}]}]}
